From US20220339279A1, “RECOMBINANT PROTEINS, COMPOSITIONS, VECTORS, KITS, AND METHODS FOR […], AND TESTING FOR EXPOSURE TO, SEVERE ACUTE RESPIRATORY SYNDROME CORONAVIRUS 2” (Board of Regents of the University of Nebraska, priority 2021, published 2022)

Assays:
[1] = target: hACE2 on human bronchial epithelial Calu-3 cells (human) (UniProt Q9BYF1)
[2] = target: recombinant hACE2-AviTag protein from 293T cells (Acro Biosystems) (human) (UniProt Q9BYF1); assay: SPR, hACE2-AviTag captured on chip, spike construct as analyte

With “S-Ecto-eGFP (other; other documents disagree on this pair)” the fold median GFP fluorescence intensity (MFI) over GFP-His tag control [1] was 2.6 fold and the Kd [2] was 55.1 nM.
